Assay results: the DeepSol protein solubility set

Test: soluble on expression in E. coli; label from the status in PepcDB or PDB records

| Sequence | soluble on expression in E. coli |
| --- | --- |
| MGRVGVLLANLGTPDDYSYWPMRRYLNEFLSDKRVIDYPAWKWQPILQGIILTKRPFSSGAAYESIWNHDKGESPLMTITKDQTAKLRAALAERYGDRVMVDFCMRYGNPSTKSKVRQMVTEGCDRILFFPLYPQYAGATTATANDQFFRALMDETWQPAARTVPAYFDQPAYVDALAQSIERAYAAMDSRPDVLVCSYHGMPERYLMQGD | not soluble |
| MKFAVSSKGDQVSDTLKSKIQAYLLDFDMELDENEPEIVISVGGDGTLLYAFHRYSDRLDKTAFVGVHTGHLGFYADWVPHEIEKLVLAIAKTPYHTVEYPLLEVIVTYHENEREERYLALNECTIKSIEGSLVADVEIKGQLFETFRGDGLCLSTPSGSTAYNKALGGAIIHPSIRAIQLAEMASINNRVFRTVGSPLLLPSHHDCMIKPRNEVDFQVTIDHLTLLHKDVKSIRCQVASEKVRFARFRPFPFWKRVQDSFIGKGELEHHHHHH | soluble |
| MAHHHHHHMEKDDHYKTSEKYEICTSFENIGIDEGLLRGIYAYGFEKPSAIQQRGIKPILNGRDVILQSQSGTGKTCVFAVGALNCVNRNLNETQVIILSPTRELAEQTQKVCLALADYIHVTIYCCIGGKKMSDDIKALNNGVHVISGTPGRIYHMLNLRHLKCKYIKQLVIDEADEMLNKGFKEQVYDIYRFLSPNTQIILSSATLPQEVLEITNKFMHKPVKILVKRDELTLEGIKQFFVSIEKEQWKYETLADLYESLTITQAVVFCNTQMKVDWLTKKMLESNFTVCKMHAGMSQSERDDIMLKFRQCKFRVLISTDIWGRGLDVQEVSLVVNYDLPNSRESYIHRIGRSGRFGRKGVAINFVKNDDIKILRDIEQYYSTQIDEMPMNITELL | not soluble |
| MKTLMVFDPAMCCSTGVCGTDVDQALVDFSTDVQWLKQCGVQIERFNLAQQPMSFVQNEKVKAFIEASGAEGLPLLLLDGETVMAGRYPKRAELARWFGIPLDKVGLAPG | soluble |
| MPLEEGVLIDCTLGLGGHSKALLSQKPHLKLIGIDKDKFAQEIAKERLKAFEGRYNLLSGGFAKRFKEALETHNKEIKGVLVDLGVSSLQLDDDNRGFNFHSHTLDMRMDLESELNAQKVINSYPIVALEKIFRDYGEIKEYKKIAHKIAERRAKKPFKNAKDLSEFLSSFSKNKKIHPATLVFQAVRIEVNSELEELKEFLQCARNLKGAILCVISFHSLEDALVKNAFKDYAKNCICDPSSFKCACSNNHALGEILTKKPITPSPEEIKNNRRSRSAKMRVFQFKPLEHHHHHH | not soluble |
| MTTSHRPQLEARSGAKAAAYTPTGIEHARLLPGHTTLKYRKFKEEENLRANCAQEDRSNDKSLEEAVMNEEKQDVVGSGNLQETRSEKDQKDSLQELLVTQKNKVEDKAELEGNEQLKGGNSSRRSWRKGTAFGRHKVTKETNIKEHATKKSASGYINDMTKSEYHQEFLHKHVR | not soluble |
| MISILYDEIVSCSRCERLIEYRKNFKIPPRFKDWNYWNKPVPGFGDEKAKILIVGLAPALHGGNRTGRVFTGDESGKWVIKGLYALGLSNKEEGKTREDGLEVKEVYLTNTVKCAPPKNKPTREEISNCSRFLIEEIKSLRIKVILALGRIAFDTILSLYGIKSKFYHGVVIKLPDDKILIGSYHPSAQNTKTGRLKWEDWIKILKLAYEIANNPQY | soluble |
| MPKWISIDEAAHKYGVKEEDICLWAEMEAITAYFTETTLIIDEKSLQKFMYLRKNLPTTGYIRTLEQLCINQSEVCKLYMEVIELQEKDLQYKKRRISVLERQYAMATKQNKLREKIITITSDMLSKAESGWWEKLWMKISNRQKL | not soluble |
| MGSDKIHHHHHHMNESSTHDSVADDPTEVSTDTVLDIALSLFSELGFSDAKLEAIAKKSGMSKRMIHYHFGDKRGLYICCLEEAVRRLRPTAEEMYLASAVPVEGVRTIVEAVFHRYVQHPEAVRMLQMENLHHYGKVAEASPLSDQSAITLQLDRLLMLGQDAGAFRPGISAQDVFTLIASIAVFRINSRSTTLNLYGIDMMNGDNTDGMRRMAVDTVLAFLTSNLKSADEDSYLSRPLLSTVTEHVDEEGSYEVAADPFS | not soluble |
| MGSDKIHHHHHHMKFLRSLAFLNLQKKFKNKFNINILDYIKPKPTKICFKDFENKYLTAKQKEVLFDIESNNYSKVIFSGGIASGKTFLASYLLVKKLIENKSFYEQDTNNFIIGNSIGLLMTNTVKQIEKICSLLGIDYEKKKSGQSFCKIAGLKLNIYGGKNRDAFSKIRGGNSAIIYVNEATVIHRETLLEVIKRLRKGKEIIIFDTNPESPAHYFKTDYIENTDVFKTYNFTTYDNPLNSADFIQTQEKLYRRFPAYRARVLYGEWILNESTLFNEMIFNQDYEFKSPIMYIDPAFSVGGDNTAICVLERTFEKFYAYIYQDQKPVSDSLMLASIQVLIENFNVNTVYIEERDSTKGDGILTKTILFLRNKSSHYFKVAPIKPLSNKFKRICALIPLFESRKIEFLKIISKNVISDIYSYKGDGKTKDDALDSLANAYLLLTLNYKEKLFHFGRFKYL | not soluble |
| MSLRAGTEETERGHTALTVEGIGRRRGSEERETPERGDKEEGKEQVKRETAGGTRSSSPQKQRGKSTTRRLSVAGLSSERTQSNFEIHRELEDQTDDAMSGAGGIDCSMSGTTATVVLHIHALKKLFVAHVGDSRAVIARREHASSRAVAGGSDGFRQETRNDSRMLQQQTSSEPRETAEDRGCRSAGTGTDCRPLSRLMAFDLTNDHKPTNEIEKQRIMKAGGQVRRLEGDVPHRVFLKNRLFPGLAMSRAIGDTIATQAGVIPDPEVRGYQQSQSDEGHHHHHH | soluble |
| MGSDKIHHHHHHMLLHFVPINVFRETPQVSFFDAGVNGSNGADVVIHHKNAISPPDDGNFEQYYIHNHQVDHNLVIEGSRKFTLINPKWDEPHHVIFLNRAMGALQIPIGTYHRSESGKEGSIVLNQATRDDMFDQRKEFSPVSLRSNKQLRKARQAHPVYWIWEEERIKRVKLDCKGYSKNIKLEPLKTAH | not soluble |
| MRILILGMGGTIASVKGERGYESALSVSKILKLAGISSEAKIEARDLMNVDSTLIQPSDWERLAKEIEKEVWEYDGIVITHGTDTMAYSASMLSFMLRNPPIPIVLTGSMLPITEKNSDAPFNLRTALEFVKLGIRGIYIAFNGKVMLGVRASKIRSMGFDAFESINYPNVAEIKDDKLRILHIPDFYGDEFFSDIKYEPKVLVIKLIPGLSGDIVREALRLGYKGIILEGYGVGGIPYRGTDLFEVVSSISKRIPVVLTTQAIYDGVDLQRYKVGRIALEAGVIPAGDMTKEATITKLMWILGHTKNIEEVKQLMGKNITGELTRVS | soluble |
| MKKVLFLLFLVFSFGVYSATFSDSDKKEILKQFSEFQKAVKKKDAAAVSRYISYPLKEGNTKEVIWKNSSELAKDLKDKETYTFYSINELKIDSNANKIINVEERLLEKNGEFGDEFLSVTGRFLDTDDVEGTIYTGIDKPHFVVAVSVYDDMFEGGTYYLFSFENKKLELVSIFRLP | not soluble |
| MQSAELKQFVVDKIDDLKARDVVVIDVSNQSNITDYMVICSGTSKTHVKAIAENLVIEAKAAGIPPIGIEGRDSSEWVLVDMGNVILHVMQDQTRDFYQLEKLWSEKQA | soluble |
| GLEIHVQIDTKSKLFCNCSTNYLDAEPNTNVCPVCLGLPGAKPLPPNKKAVEVAIMVAKMLGCKIVVDEDIYFQRKHYDYPDLPSGYQRTSTPIGVDGEFMGIGIHEVHLEEDPGQYNPSFGIVDYNRSGTPLIEIVTKPDIKSPEEAREFLKQLMTLFRYLGCLRGEGTMRADVNISIEYMGVQGNRVEVKNVNSIKGVYKVLKYELIRQKNIIKR | not soluble |
| MGFGNINFCAVDLGSHKITVAIGQLAENNSIKILGVSQKQSKGIKQGSVINLEIAMETLNAALDEAKSIAGVDVKEVTLGVSAPSISGFNSYGLAAVENGEVSIEDLAMAIKTAKAVPMSADTEMLHVLQRDYIVDGQAGVTEPIGMFAVRLESNVHIIVASSRLLQNVRKCVSNCGYSISNLVVEHLAASSATLTDNEKEMGVCLVNIGADSTSFSVFADGGICYTSSIKTGGASISSDISKVFRLPIEAAESLKLQYGYAASKYLKNPDEKIDIPNSLGNAKKRISLQDLSLVIEARVEEIFESLYRELDQHRLLEVISSGIVFTGGGAKLKGLARLAEDMFKLPVRVGGPIEVSGANEVVHNPSYATVVGLLKYAAENSDTSNQQKIEEDVMEIDENTGKSKKKIISSVKGWFSNNF | not soluble |
